Earlier results as cited in article PMC4652184.
pKd: −log10 of the molar value.

Target: Slit2 (Homo sapiens) (UniProt O94813)
Sequence (O94813 31-1529): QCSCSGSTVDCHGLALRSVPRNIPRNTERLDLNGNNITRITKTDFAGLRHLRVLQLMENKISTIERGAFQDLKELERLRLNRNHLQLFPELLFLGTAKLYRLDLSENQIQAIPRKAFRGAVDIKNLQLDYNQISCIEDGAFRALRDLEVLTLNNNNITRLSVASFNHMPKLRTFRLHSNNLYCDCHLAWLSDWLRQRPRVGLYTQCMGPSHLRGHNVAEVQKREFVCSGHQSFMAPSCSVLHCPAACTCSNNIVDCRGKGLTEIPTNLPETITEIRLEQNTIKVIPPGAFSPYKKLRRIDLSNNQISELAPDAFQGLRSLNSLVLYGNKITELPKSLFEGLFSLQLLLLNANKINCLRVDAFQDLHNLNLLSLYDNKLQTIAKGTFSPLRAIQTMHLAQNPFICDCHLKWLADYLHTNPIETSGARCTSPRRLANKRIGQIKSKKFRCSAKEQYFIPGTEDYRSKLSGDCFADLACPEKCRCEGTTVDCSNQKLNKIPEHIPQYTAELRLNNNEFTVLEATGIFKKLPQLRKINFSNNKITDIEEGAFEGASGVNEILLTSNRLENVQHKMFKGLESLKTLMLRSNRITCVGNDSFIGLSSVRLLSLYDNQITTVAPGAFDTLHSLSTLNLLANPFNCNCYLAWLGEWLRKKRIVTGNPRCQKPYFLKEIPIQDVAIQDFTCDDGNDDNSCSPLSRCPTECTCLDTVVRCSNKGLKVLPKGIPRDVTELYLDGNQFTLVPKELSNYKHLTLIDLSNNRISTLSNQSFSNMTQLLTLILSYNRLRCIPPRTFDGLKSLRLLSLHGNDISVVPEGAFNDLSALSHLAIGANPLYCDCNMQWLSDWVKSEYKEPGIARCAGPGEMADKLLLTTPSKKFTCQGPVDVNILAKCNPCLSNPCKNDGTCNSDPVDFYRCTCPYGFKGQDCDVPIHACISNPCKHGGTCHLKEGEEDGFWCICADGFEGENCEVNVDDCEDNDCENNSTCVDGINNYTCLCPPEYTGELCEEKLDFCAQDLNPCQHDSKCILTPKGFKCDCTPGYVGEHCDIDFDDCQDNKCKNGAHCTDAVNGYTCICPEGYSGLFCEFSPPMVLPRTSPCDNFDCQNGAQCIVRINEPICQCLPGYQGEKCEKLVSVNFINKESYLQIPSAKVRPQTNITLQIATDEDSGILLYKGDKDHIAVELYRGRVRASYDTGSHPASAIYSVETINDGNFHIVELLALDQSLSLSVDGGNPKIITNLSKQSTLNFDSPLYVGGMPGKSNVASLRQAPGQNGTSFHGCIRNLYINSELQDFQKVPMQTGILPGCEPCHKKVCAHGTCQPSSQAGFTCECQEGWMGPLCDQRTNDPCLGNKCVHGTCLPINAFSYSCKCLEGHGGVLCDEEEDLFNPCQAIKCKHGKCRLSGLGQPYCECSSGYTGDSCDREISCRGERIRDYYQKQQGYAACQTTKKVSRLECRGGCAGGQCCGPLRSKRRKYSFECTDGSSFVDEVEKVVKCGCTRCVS

Robo1, sequence (Q9Y6N7 26-897): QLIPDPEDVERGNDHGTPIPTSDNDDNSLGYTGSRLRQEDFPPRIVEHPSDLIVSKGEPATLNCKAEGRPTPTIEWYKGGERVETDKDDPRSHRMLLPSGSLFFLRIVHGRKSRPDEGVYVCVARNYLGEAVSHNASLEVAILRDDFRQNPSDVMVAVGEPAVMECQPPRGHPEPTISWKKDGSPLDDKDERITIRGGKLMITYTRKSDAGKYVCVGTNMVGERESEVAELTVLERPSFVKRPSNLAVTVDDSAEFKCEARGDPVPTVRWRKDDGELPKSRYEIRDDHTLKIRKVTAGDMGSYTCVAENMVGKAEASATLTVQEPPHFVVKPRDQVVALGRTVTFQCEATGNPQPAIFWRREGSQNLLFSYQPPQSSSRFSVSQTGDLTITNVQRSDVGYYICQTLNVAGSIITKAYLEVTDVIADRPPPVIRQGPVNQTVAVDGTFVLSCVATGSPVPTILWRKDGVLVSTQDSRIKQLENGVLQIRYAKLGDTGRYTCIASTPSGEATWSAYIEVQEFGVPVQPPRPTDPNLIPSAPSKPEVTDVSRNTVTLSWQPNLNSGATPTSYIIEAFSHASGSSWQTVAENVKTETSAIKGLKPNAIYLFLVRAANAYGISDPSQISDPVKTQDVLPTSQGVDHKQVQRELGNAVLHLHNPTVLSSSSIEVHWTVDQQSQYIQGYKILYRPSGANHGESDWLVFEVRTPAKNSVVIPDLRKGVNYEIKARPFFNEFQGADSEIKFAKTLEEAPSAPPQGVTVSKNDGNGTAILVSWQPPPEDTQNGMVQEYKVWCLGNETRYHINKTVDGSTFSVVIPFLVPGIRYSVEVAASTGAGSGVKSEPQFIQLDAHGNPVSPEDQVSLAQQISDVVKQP

Substance: Robo1 (from UniProt Q9Y6N7)
- pKd: 8.35
